Source: patent publication US8450067B2, “Method for obtaining anti-idiotype antibodies” (Omrix Biopharmaceuticals Inc., priority 2002, dated 2013)

How the values were obtained:
[1] = target: synthetic cyclic peptide (1) KHETTET; assay: ELISA on coated Pep 1; control IgG 1 ug/ml
[2] = target: synthetic cyclic peptide (1) KHETTET; assay: ELISA on coated Pep 1; control IgG 5 ug/ml
[3] = target: synthetic cyclic peptide (2) PPNHSHL; assay: ELISA on coated Pep 2; control IgG 1 ug/ml
[4] = target: synthetic cyclic peptide (2) PPNHSHL; assay: ELISA on coated Pep 2; control IgG 5 ug/ml
[5] = target: synthetic cyclic peptide (3) AGLKNSQ; assay: ELISA on coated Pep 3; control IgG 1 ug/ml
[6] = target: synthetic cyclic peptide (3) AGLKNSQ; assay: ELISA on coated Pep 3; control IgG 5 ug/ml
[7] = target: synthetic cyclic peptide (4) ASTIRAG; assay: ELISA on coated Pep 4; control IgG 1 ug/ml
[8] = target: synthetic cyclic peptide (4) ASTIRAG; assay: ELISA on coated Pep 4; control IgG 5 ug/ml
[9] = target: synthetic cyclic peptide (5) VRVLLRS; assay: ELISA on coated Pep 5; control IgG 1 ug/ml
[10] = target: synthetic cyclic peptide (5) VRVLLRS; assay: ELISA on coated Pep 5; control IgG 5 ug/ml
[11] = target: synthetic cyclic peptide (6) TQPPELP; assay: ELISA on coated Pep 6; control IgG 1 ug/ml
[12] = target: synthetic cyclic peptide (6) TQPPELP; assay: ELISA on coated Pep 6; control IgG 5 ug/ml
[13] = target: synthetic cyclic peptide (7) LSQPERW; assay: ELISA on coated Pep 7; control IgG 1 ug/ml
[14] = target: synthetic cyclic peptide (7) LSQPERW; assay: ELISA on coated Pep 7; control IgG 5 ug/ml
[15] = target: synthetic cyclic peptide (8) PPPDLHA; assay: ELISA on coated Pep 8; control IgG 1 ug/ml
[16] = target: synthetic cyclic peptide (8) PPPDLHA; assay: ELISA on coated Pep 8; control IgG 5 ug/ml
[17] = target: synthetic cyclic peptide (9) GTTQWVL; assay: ELISA on coated Pep 9; control IgG 1 ug/ml
[18] = target: synthetic cyclic peptide (9) GTTQWVL; assay: ELISA on coated Pep 9; control IgG 5 ug/ml
[19] = target: synthetic cyclic peptide (10) YGTPSSE; assay: ELISA on coated Pep 10; control IgG 1 ug/ml
[20] = target: synthetic cyclic peptide (10) YGTPSSE; assay: ELISA on coated Pep 10; control IgG 5 ug/ml
[21] = target: synthetic cyclic peptide (11) SLQRHPW; assay: ELISA on coated Pep 11; control IgG 1 ug/ml
[22] = target: synthetic cyclic peptide (11) SLQRHPW; assay: ELISA on coated Pep 11; control IgG 5 ug/ml
[23] = target: synthetic cyclic peptide (12) PLPDWRV; assay: ELISA on coated Pep 12; control IgG 1 ug/ml
[24] = target: synthetic cyclic peptide (12) PLPDWRV; assay: ELISA on coated Pep 12; control IgG 5 ug/ml
[25] = target: synthetic cyclic peptide (13) DWLYSRS; assay: ELISA on coated Pep 13; control IgG 1 ug/ml
[26] = target: synthetic cyclic peptide (13) DWLYSRS; assay: ELISA on coated Pep 13; control IgG 5 ug/ml
[27] = target: synthetic cyclic peptide (14) PPQKHLL; assay: ELISA on coated Pep 14; control IgG 1 ug/ml
[28] = target: synthetic cyclic peptide (14) PPQKHLL; assay: ELISA on coated Pep 14; control IgG 5 ug/ml
[29] = target: synthetic cyclic peptide (15) KYKRKYP; assay: ELISA on coated Pep 15; control IgG 1 ug/ml
[30] = target: synthetic cyclic peptide (15) KYKRKYP; assay: ELISA on coated Pep 15; control IgG 5 ug/ml
[31] = target: synthetic cyclic peptide (1) KHETTET; assay: ELISA on coated Pep 1 (Table 3); control IgG 1 ug/ml
[32] = target: synthetic cyclic peptide (1) KHETTET; assay: ELISA on coated Pep 1 (Table 3); control IgG 5 ug/ml
[33] = target: literature peptide …; assay: ELISA on coated Pep 2 (Table 3); control IgG 1 ug/ml
[34] = target: literature peptide …; assay: ELISA on coated Pep 2 (Table 3); control IgG 5 ug/ml
[35] = target: literature peptide …; assay: ELISA on coated Pep 3 (Table 3); control IgG 1 ug/ml
[36] = target: literature peptide …; assay: ELISA on coated Pep 3 (Table 3); control IgG 5 ug/ml
[37] = target: literature peptide …; assay: ELISA on coated Pep 4 (Table 3); control IgG 1 ug/ml
[38] = target: literature peptide …; assay: ELISA on coated Pep 4 (Table 3); control IgG 5 ug/ml
[39] = target: literature peptide …; assay: ELISA on coated Pep 5 (Table 3); control IgG 1 ug/ml
[40] = target: literature peptide …; assay: ELISA on coated Pep 5 (Table 3); control IgG 5 ug/ml
[41] = target: literature peptide …; assay: ELISA on coated Pep 6 (Table 3); control IgG 1 ug/ml
[42] = target: literature peptide …; assay: ELISA on coated Pep 6 (Table 3); control IgG 5 ug/ml
[43] = target: literature peptide …; assay: ELISA on coated Pep 7 (Table 3); control IgG 1 ug/ml
[44] = target: literature peptide …; assay: ELISA on coated Pep 7 (Table 3); control IgG 5 ug/ml
[45] = target: literature peptide …; assay: ELISA on coated Pep 8 (Table 3); control IgG 1 ug/ml
[46] = target: literature peptide …; assay: ELISA on coated Pep 8 (Table 3); control IgG 5 ug/ml
[47] = target: literature peptide …; assay: ELISA on coated Pep 9 (Table 3); control IgG 1 ug/ml
[48] = target: literature peptide …; assay: ELISA on coated Pep 9 (Table 3); control IgG 5 ug/ml
[49] = target: literature peptide …; assay: ELISA on coated Pep 10 (Table 3); control IgG 1 ug/ml
[50] = target: literature peptide …; assay: ELISA on coated Pep 10 (Table 3); control IgG 5 ug/ml
[51] = target: literature peptide …; assay: ELISA on coated Pep 11 (Table 3); control IgG 1 ug/ml
[52] = target: literature peptide …; assay: ELISA on coated Pep 11 (Table 3); control IgG 5 ug/ml
[53] = system: anti-anti-dsDNA (anti-Id) isolated from IVIG; assay: Direct binding of anti-Id to the synthetic peptides by ELISA; parameters: species or system human; conditions: Table 2
Description: (§1) The binding of anti-Id to the peptides was tested by ELISA.
(§2) ELISA plates were coated by 10 ug/ml of peptides in PBS overnight at 4° C. The plates were blocked with 3% BSA for 1hr at 37° C. Anti-Id was added at different concentrations. IgG purified from one donor was used as negative control.
(§3) The binding of the immunoglobulin was probed with goat anti-human IgG conjugated to alkaline phosphatase and the appropriate substrate. Between each step, extensive washings were performed with 0.05% PBS-Tween.
(§4) The same protocol was used as above, but the peptides used in this study were taken from the literature except for peptide number 1 which is the first peptide in the previous experiment.

[54] = system: control IgG (IgG purified from one donor); assay: Direct binding ELISA, negative control immunoglobulin; parameters: species or system human; conditions: Table 2
Description: as §1, §2, §3, §4

IgG purified from one donor (negative control) (antibody)
OD at 405 nm [1]: 0.013 OD | OD at 405 nm [2]: 0.016 OD | OD at 405 nm [3]: 0.009 OD | OD at 405 nm [4]: 0.009 OD | OD at 405 nm [5]: 0.011 OD | OD at 405 nm [6]: 0.011 OD | OD at 405 nm [7]: 0.013 OD | OD at 405 nm [8]: 0.011 OD | OD at 405 nm [9]: 0.009 OD | OD at 405 nm [10]: 0.008 OD | OD at 405 nm [11]: 0.007 OD | OD at 405 nm [12]: 0.009 OD | OD at 405 nm [13]: 0.045 OD | OD at 405 nm [14]: 0.048 OD | OD at 405 nm [15]: 0.043 OD | OD at 405 nm [16]: 0.046 OD | OD at 405 nm [17]: 0.045 OD | OD at 405 nm [18]: 0.044 OD | OD at 405 nm [19]: 0.06 OD | OD at 405 nm [20]: 0.048 OD | OD at 405 nm [21]: 0.068 OD | OD at 405 nm [22]: 0.068 OD | OD at 405 nm [23]: 0.043 OD | OD at 405 nm [24]: 0.045 OD | OD at 405 nm [25]: 0.069 OD | OD at 405 nm [26]: 0.078 OD | OD at 405 nm [27]: 0.079 OD | OD at 405 nm [28]: 0.083 OD | OD at 405 nm [29]: 0.037 OD | OD at 405 nm [30]: 0.068 OD | OD at 405 nm [31]: 0.044 OD | OD at 405 nm [32]: 0.043 OD | OD at 405 nm [33]: 0.04 OD | OD at 405 nm [34]: 0.041 OD | OD at 405 nm [35]: 0.043 OD | OD at 405 nm [36]: 0.043 OD | OD at 405 nm [37]: 0.04 OD | OD at 405 nm [38]: 0.039 OD | OD at 405 nm [39]: 0.043 OD | OD at 405 nm [40]: 0.048 OD | OD at 405 nm [41]: 0.046 OD | OD at 405 nm [42]: 0.043 OD | OD at 405 nm [43]: 0.043 OD | OD at 405 nm [44]: 0.052 OD | OD at 405 nm [45]: 0.044 OD | OD at 405 nm [46]: 0.041 OD | OD at 405 nm [47]: 0.044 OD | OD at 405 nm [48]: 0.045 OD | OD at 405 nm [49]: 0.042 OD | OD at 405 nm [50]: 0.041 OD | OD at 405 nm [51]: 0.043 OD | OD at 405 nm [52]: 0.041 OD

PPQKHLL [Pep 14]
binding of anti-Id to peptide (OD at 405 nm) ([53]; anti-Id 1 μg/ml): 0.113 | binding of anti-Id to peptide (OD at 405 nm) ([53]; anti-Id 2.5 μg/ml): 0.234 | binding of anti-Id to peptide (OD at 405 nm) ([53]; anti-Id 5 μg/ml): 0.611 | binding of anti-Id to peptide (OD at 405 nm) ([53]; anti-Id 10 μg/ml, plates coated with 10 ug/ml peptide): 0.987 | binding of control IgG to peptide (OD at 405 nm) ([54]; control IgG 1 μg/ml): 0.079 | binding of control IgG to peptide (OD at 405 nm) ([54]; control IgG 5 μg/ml): 0.083
